Measurements as given in a protein production outcome set (Wang et al. 2014).

Experiment: label from the status in PepcDB records

**Q.** For “MSTATLSGQSPSAQRRPMTREERRVIFASSLGTVFEWYDFYLYGSLAAIIAQHFFSGVNPTAAFIFALLAFAAGFAVRPFGALVFGRLGDLVGRKYTFLITIVIMGLSTFLVGVLPSYASIGIAAPAILIILRLLQGLALGGEYGGAATYVAEHAPHGRRGFYTSWIQTTATLGLFLSLLVILGVRTFMGEEAFKDWGWRIPFLISVVLLGISVWIRLQLNESPTFKRMKEEGKGSKAPIAESFGQWRNLKVVILALLGLTAGQAVVWYTGQFYALFFLTQSLKIDSNTANIMIAIALLVGTPFFVLFGALSDRIGRKPIIMAGCLIAALTYFPIFKGLTHYANPALEKAQATAPVTVIADPATCSFQFNPVGTASFTSSCDVVKSFMARNSVNYENQSAAAGSVAKVMIGNDEFASFDGKGLAPAEFKTKATELDKALTAAIRSHGYPAKADPAQTNYFMVVVLLTLLVIYVTMVYGPIAAMLVEMFPTRIRYTSMSLPYHIGNGWFGGFLPPVAFAVVAATGNIYDGLWYPIIIAVMTLVIGTLFVRETKDNDINA”, which protein production is on record?
**A.** Its protein production is “not failed”.

**Q.** With “MSTDILSAIGLTIIFVGLVLVIVGIVSGIIKSSKKERNENQREETKTEYGGVIFIGPIPIVFGSNKDMAKMALIIGVIMVVLIIAFVVLSYVV” as the sequence, how does the protein production read?
**A.** Its protein production is “failed”.

**Q.** For “MSTDTCIKRPTRSELVDRFQKKIRAGEPIIGGGAGTGLSAKSEEAGDIDLIVIYNSGRYRMAGRGSLAGLLAYGNANQIVVDMAREVLPVVRHTPVLAGVNGTDPFMVMSTFLRELKEIGFAGVQNFPTVGLIDGLFRQNLEETGMSYAQEVEMIAEAHKLDLLTTPYVFSPEDAVAMAKAGADILVCHMGLTTGGAIGARSGKSMDDCVSLINECIEAARTIRDDIIILSHGGPIANPEDARFILDSCQGCHGFYGASSMERLPAEEAIRSQTLAFKAIRRQPA”, which protein production is on record?
**A.** Its protein production is “not failed”.

**Q.** For “MSTEQLLVLIAQNDIKDDIVDTLIELEFLSGFSLGNICGFSREHSHFNIKEQVEGYREFCKFEIMHPAAQQAALLTALALVCKHNPCRYWIMPIYQNGTLS”, which protein production is on record?
**A.** Its protein production is “not failed”.

**Q.** Which protein production does the source give for “MSTIDFRPYGGFIFDMDGTLIDTMPAHLAAWQATADRFDFPFCQEWLHSLGGMPSFKIVAELNRHYGLSLDPQTVSKFKMETFAAMELQGDVIQCTGIVLEEYLGQKKIAVGTGSQRESAMRLLSHAGLIDRLDAVVTASDVENHKPCPDTFLLAADRLGIDAQNCLVFEDTELGKRAAHSAGMDCVMVEGNNLVFYPKR” here?
**A.** The protein production was “not failed”.

**Q.** With “MSTIIETGKSDFIKVNVSNSHNDAVAFEVKLAKDLTVAQLKTKLEILTGGCAGTMKVQVFKGDTCVSTMDNNDAQLGYYANSDGLRLHVVDSFATFSFDSAPVEKFELSKDQYEQRTDSVRNYLKINRMGKYNDEEMQQAEEKKRLQAEEIQKRAELCVLGGRCEVTVPGNPTRRGTIRYNGPLEGKSGHFIGVEYDEPLGKNNGSFGGKAYFTCAPNYGGFVSPLSVTVGDFPPEDFNMDDEL” as the sequence, how does the protein production read?
**A.** The protein production was “failed”.

**Q.** With “MSTILSLAPQNVWKHFYSLTQVPRPSGYLKKVQEFLLNFGKSVGVESFQDEAGNIIYRKPATPGMENRKKVILQAHMDMVPQKNNDTVHDFENDPIETYIDGDWVKAKGTTLGADDGMGVAAIMAIMEDKTLKHGPLEALITADEETGMFGAFGLKPGTVDGDILLNLDSEEEGELYIGCAGGEDLTAVLEYKEVETDPADIALKVTLKGLRGGHSGLEINEGRANANKLMARFMNQVITYDEACLVSWQGGNMRNAIPRECEVVITVPAEEEADVLEFVQECEALWNEEYHVHETPISFKAERVELPAMMVPDEIKDNLVDAIYACQNGVMRMIPTIPDTVETSSNLAIVSIGGGKAEIKILARSSRDSMKDYLNTALESCFSMAGMEVTRSGGYSGWEPNVDSPILKAMKESYKAQFGTEPAVKVIHAGLECGIIGAVVPGLDMISFGPTLRSPHSPDERCFIPSVGKFYDFVVATLENTPVKE” as the sequence, how does the protein production read?
**A.** Its protein production is “failed”.

**Q.** Which protein production does the source give for “MSTKKPAAAYSEASIKVLKGLEPVKQRPGMYTRTENPLHIIQEVIDNASDEALGGFGKQITVTLHPDQSVSVEDDGRGIPFGLHPEEKVPVVEIVFTRLHAGGKFDKAKGGAYTFSGGLHGVGVSVTNALATRLDVTVWRDGKIAQLGFADGDVVKPLATQGAGRGEKKSGTRVTVWPNPKYFDSPNLPLGELQRLLRSKAVLLPGVEVVLVNEKTGERQSWKYEDGLRGYLLDEMNGSELLIPLFEGERFADSRSGDDTFAEGEGASWVVAWSEEGSLVRESYVNLIPTPAGGTHESGLRDGLYQAVKSFVELHNLQPKGVKLLAEDVFARVSFVLSAKVLDPQFQGQIKERLNSRDAVKLVSSFTRPALELWLNQHVEHGKKLAELVIKQAQARTRAGQKIEKKKSSGVAVLPGKLTDCETEDIARNELFLVEGDSAGGSAKMGRDKEYQAILPLRGKVLNTWETERDRLFANNEVHDISVAIGVDPHGPDDSVDVSNLRYGKICILSDADVDGAHIQVLLLTLFFKHFPQLIERGHVFVARPPLFRVDAPARGKKPAQKLYALDEGELEAILDKLRKDGVRESQWTISRFKGLGEMSAEQLWDTTMNPDTRRLMPVALGELDFEATVARMTMLMGKGEAAARRNWLEEKGNEVEADI” here?
**A.** Its protein production is “failed”.

**Q.** With “MSTLPTPPRPRPVDIIIPVYKGLEETRLCLESVLATLPAADGLIVIDDHSPDPALVAYLKDRAAGDRRIRLLHNPENLGFVGTVNRGMALEPERDVLLLNSDTEVAGDWVARLRAAAYADRRIGTVTPFSNNATICSWPRFCQDNPLPPGLDVAGVDRAFAAANPGLSIDIPTGVGFAFYIRRDCLDEVGLFNAEAFGKGYGEENDFCRRAHHRGWRNVLAADTFVYHSGNVSFGVNQERLDSAMRQLLALHPDYRRVVQLHINQDPAQNMRWRAALGILRQSALPVLLFVTHNHGGGTLSHVHELAKALEGRAWGLLLTPGPRNTAVVTLPASLGGDALPFDLEQDWDGLLDLLRYAGVNRLHLHHMLGVPERLLDLPEQLSIPFDFTAHDFHAGCPRVMLCGPGSRYCGQPEERALCDACLAQAPKTEAGDITSWRAAMVARLSRAERLFAPSADTANRLKRMLPALSFRAIPHPDAQGLATNAPPPLLRPCGTTEPLRILVLGALSRAKGADLVEATAREAARGDLPLEIHLLGYGYRPLHRARGRLTAHGRYHPEEIAGHLERIAPHVAWLPAGWPETYSYTLSEVMAAGLPVVVSDLGAPPERILGRPLSWVLPWNVDASTAAAFFGRLRAGEIPASPEAPALSPQSTPRVDFYREGYLAEVFPEKARARLPEREIGELIGQALDRAGARRRRLQCWGDLKVVRQRIWRSLITLLAHPSLFPLVSRIPVSFQERLKRLIKG” as the sequence, how does the protein production read?
**A.** The protein production was “failed”.

**Q.** For “MSTNQEKLFGRLLLKNDILQLIKNTDKISVSKIFSNFLLETKVNPILGMTSISSNKIKCNRCGTVHIKNSVKLPIGVFYCPSCIQLGRVRSDDFLYFLPQKNFPKKSYINWSGKLTENQKSISNALCQEINSHQQIIVQAVTGAGKTEMIYQVIEQILESGGVVGLASPRIDVCLELHQRLSRDFSCKIPLLYHDGDSYFRAPLIIMTSHQLLRFKEAFDLLIIDEVDAFPFRDNEMLYVAAEKARKIEGNLIYLTATSTDKLEKDIKKQKLYPLFLPRRFHNFPLVVPKFFWKNKFDKKLIEQRNSGFPLLIFAAEIEFGQEFAKQLQLKFPKEKIASVASTTKDRLEIVKAFRNKEITILIATSILERGVTFPNVDVFVINSEHPNFTKSALIQMAGRVGRSPERPTGLVSFFHYGKSKAMCQAVREIKKMNQLGCFS”, which protein production is on record?
**A.** Its protein production is “failed”.

**Q.** Which protein production does the source give for “MSTNYIDCQLLNKMERQPSFSSFDCGDPFLDSFAPKKLANADANNDSRVYVAVDGDIGVGYATMKVFMLSNDEYKILSGKYPRQVPVVMLDQIAVDKAYQGKGIGKRLMRKVLEATVLVNELAAAKGLALWAHPRAKDFYESLGFEAIPDATKQVQDVELTLMFIHVETILDALK” here?
**A.** Its protein production is “failed”.

**Q.** Which protein production does the source give for “MSTPDIGTFTVRPLDPTRDAELLHGWVTHPKSAFWMMQEARLHDVEREYMAIAASEYHDAFLGLLDDEPVFLMEKYDPAHVELVGLYEPEPGDVGMHFLVAPTDTPVHGFTRAVITAVMEHLFADPATRRVVVEPDVGNKAVHALNEAVGFVPEREIQKPEKKALLSFCTREQFAAAVRGAAV” here?
**A.** Its protein production is “not failed”.

**Q.** Which protein production does the source give for “MSTPLQGIKVLDFTGVQSGPSCTQMLAWFGADVIKIERPGVGDVTRHQLRDIPDIDALYFTMLNSNKRSIELNTKTAEGKEVMEKLIREADILVENFHPGAIDHMGFTWEHIQEINPRLIFGSIKGFDECSPYVNVKAYENVAQAAGGAASTTGFWDGPPLVSAAALGDSNTGMHLLIGLLAALLHREKTGRGQRVTMSMQDAVLNLCRVKLRDQQRLDKLGYLEEYPQYPNGTFGDAVPRGGNAGGGGQPGWILKCKGWETDPNAYIYFTIQEQNWENTCKAIGKPDWITDPAYSTAHARQPHIFDIFAEIEKYTVTIDKHEAVAYLTQFDIPCAPVLSMKEISLDPSLRQSGSVVEVEQPLRGKYLTVGCPMKFSAFTPDIKAAPLLGEHTAAVLQELGYSDDEIAAMKQNHAI” here?
**A.** Its protein production is “failed”.

**Q.** Which protein production does the source give for “MSTPLTLIATITAAPGHAEALERELRALVAPSRAEAGCLQYDLHQDRHDSHLFYMIEQWRDDAALERHQNTEHFLRFSRGNEALLQNVKIDQLYRLA” here?
**A.** Its protein production is “not failed”.

**Q.** Which protein production does the source give for “MSTQFKLPLASPLTHGREDFAVSPSNGEAVARLDAWPDWAEGRLVLVGPAGCGKSHLARAWAAAAGAVVVEAANPDAASVDLSALRGRAVLVEDADRRAQGAAVSDEALFHILNMAGVDGGTVLLTGRTAPLTWSAEVADLRSRLNALSVAEIAEPDDAVLEAVLRRAFAAAWWKPEPDLYPYLLARLPRSAAEAQAAAALLAEAAADGRRELTKALAREVLEGFEGDEGLEHHHHHH” here?
**A.** Its protein production is “failed”.

**Q.** With “MSTQKQEQAFFGLVWLARLTVCLLTVGLALAIDSTATERHRADVRAKWQEKVDDLGLRLRATILQNTQTVWGLAANVAVQPDIGEERFQRLASVIFKLAPELLNIGLAPGFVIKHIYPLDGNEAALGLDLQAQSLSRDQMALLLESRRAVFSGPINLVQGGQGLAARIPIFENDTGRVWGVISTILDLDRLYTAIGLDSLPPEVVFALSTTGSGNIDKGLFFGEPDAAWQEPVSTTMAMPGFSWKLYAQPADGWPDHPDSPWLLRSLLGLVTLIIIAGTLWITTLILRDRQMQLRFWGLFELAPFGIALYDAISGELLQANPGFTRILDSKANNIGYFDDVRSLSGDKQRSEPSISNRLASQVRFTGVEGFFPMADGTLQPLMLHGLRLDLQGKESVIWIIVEDISQRKEAERLKSEFISTVSHELRTPLTSISGALSLLTTNAVGELSGKAQQLLKIAQRNSDQLGFLINDLLDIEKLIAGKMDFNVIEFPVSEAITESLENIQNYATEKNITLNAQELSTTTVKADKQRLAQALNNILSNAIKFSPVNGQIRIWTKLHGQGLRIYVQDEGPGIAPEFRERMFQKFSQADSSDRRSKGGTGLGLAITKELMARMEGDVDFTSEAGQGATFWLEVPAA” as the sequence, how does the protein production read?
**A.** Its protein production is “failed”.

**Q.** Which protein production does the source give for “MSTRSARIVVVSSRAAAGVYTDDCGPIIAGWLEQHGFSSVQPQVVADGNPVGEALHDAVNAGVDVIITSGGTGISPTDTTPEHTVAVLDYVIPGLADAIRRSGLPKVPTSVLSRGVCGVAGRTLIINLPGSPGGVRDGLGVLADVLDHALEQIAGGDHPR” here?
**A.** Its protein production is “not failed”.

**Q.** Which protein production does the source give for “MSTSEDTLRTSPDTFDADSVTSKGAPQEHARQVSGMFGRIARWYDLLNHVLSGGLDLYWRYRLVRQVVPGPTGRVLDLAAGTLDVAREIHRQHPGMRVPALDFCEAMLRAGQPKLVDGVQDVIWPAVADGRRLPLADASVDCVTIAFGIRNIVPRREAFEEMLRVLVPGGRACILEFGTGKTPVWKGLYNFYLNTLLPLVGRCVSGDAGAYRYLADTIMSFPDADALAAEMHDAGFTRVYHLPLTSGIVRLHVGEKPL” here?
**A.** Its protein production is “failed”.

**Q.** For “MSTSKAITLTLFIATTLLAPCNAAANATTKPLFPAILIFGDSTVDTGNNNYPLPTIFRAEHFPYGMDLPDGKANGRFSNGKLISDIIATKLNIKEFIPPFLQPNLSDQDILTGVCFASAGAGYDDLTSLSTQAIRVSEQPNMFKSYIARLKGIVGDKKAMEIINNAFVVVSAGPNDFILNYYEIPSRRLEYPFISGYQDFILKRLENFVRELYSLGVRNVLVGGLPPMGCLPIHMTAKFRNIFRFCLEHHNKDSVLYNEKLQNLLPQIEASLPGSKFLYADVYNPMMEMIQNPSKYGFKETKRGCCGTGFLETSFMCNVFSPVCQNRSEFLFFDSIHPSEATYNVIGNLLDPLIRGKFQA”, which protein production is on record?
**A.** The protein production was “failed”.
